Patent US8450280B2, “Activation of peptide prodrugs by hK2” (GenbSpera, Inc., priority 1999, dated 2013)

Columns and labels:
hK2 = biological target: T1, hK2 (Homo sapiens, UniProt P20151); assay: Hydrolysis of hK2 substrates by hK2; format: biochemical; settings: hK2 1 μg/ml, 50 mM Tris, 0.1 M NaCl, pH 7.8
T1 construct: made in house
Procedure: (§1) Hydrolyses of particular hK2 substrates were carried out at a hK2 concentrations of 1 μg/ml in 50 mM Tris buffer, with 0.1 M NaCl, at pH 7.8. Serum hydrolysis measurements were carried out in 50% fresh human serum in 50 mM Tris buffer, with 0.1 M NaCl, at pH 7.8. The single letter amino acid code was used to designate the peptide sequences used for Table 4. The units FU are arbitrary fluorescence units. The entries “U.D.” were for measurements of less than 0.01 FU/hour.

[1] = Serum hydrolysis of hK2 substrates; format: in vitro ADME; settings: 50% fresh human serum in 50 mM Tris, 0.1 M NaCl, pH 7.8
Procedure: as §1

T1 sequence (P20151 25-261): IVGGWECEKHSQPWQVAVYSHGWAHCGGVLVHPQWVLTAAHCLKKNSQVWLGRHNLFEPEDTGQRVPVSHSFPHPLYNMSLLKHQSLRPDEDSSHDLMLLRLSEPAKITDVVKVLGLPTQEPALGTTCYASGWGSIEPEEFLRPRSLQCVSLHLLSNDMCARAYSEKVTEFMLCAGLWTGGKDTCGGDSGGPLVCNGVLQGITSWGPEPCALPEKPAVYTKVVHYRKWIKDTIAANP

| Substance | hK2 Hydrolysis Rate (hK2; Table 4) | Serum Hydrolysis Rate ([1]; Table 4) | hK2 Hydrolysis Rate (hK2; Table 5) | Serum Hydrolysis Rate ([1]; Table 5) |
| --- | --- | --- | --- | --- |
| SEQ ID NO: 73: hK2 substrate peptide, single letter sequence P7-P′1 (GSQNQRRL; listed as Homo sapiens) | 2100.48 FU/hr/m | 0.05 FU/hr | – | – |
| SEQ ID NO: 74: hK2 substrate peptide, single letter sequence P7-P′1 (GSYPSRRL; listed as Homo sapiens) | 2060.21 FU/hr/m | 0.09 FU/hr | – | – |
| SEQ ID NO: 69: hK2 substrate peptide, single letter sequence P7-P′1 (GPAHQRRL; listed as Homo sapiens) | 4017.81 FU/hr/m | 0.10 FU/hr | – | – |
| SEQ ID NO: 97: hK2 substrate peptide, single letter sequence P7-P′1 (GHEQKRRA; listed as Homo sapiens) | – | – | 3051.5 FU/hr/m | 0.06 FU/hr |
| SEQ ID NO: 100: hK2 substrate peptide, single letter sequence P6-P′1 (GGKKRRL; listed as Homo sapiens) | – | – | 2583.0 FU/hr/m | UD (The entries “U.D.” were for measurements of less than 0.01 FU/hour) |
| SEQ ID NO: 102: hK2 substrate peptide, single letter sequence P6-P′1 (GGKAFRL; listed as Homo sapiens) | – | – | 2374.2 FU/hr/m | 0.07 FU/hr |
| SEQ ID NO: 84: hK2 substrate peptide, single letter sequence P7-P′1 (GSYEERHL; listed as Homo sapiens) | 42.87 FU/hr/m | 0.09 FU/hr | – | – |
| SEQ ID NO: 114: hK2 substrate peptide, single letter sequence P6-P′1 (GGKAHRL; listed as Homo sapiens) | – | – | 1287.4 FU/hr/m | 0.10 FU/hr |
| SEQ ID NO: 120: hK2 substrate peptide, single letter sequence P6-P′1 (GGKAKKL; listed as Homo sapiens) | – | – | 77.9 FU/hr/m | UD (The entries “U.D.” were for measurements of less than 0.01 FU/hour) |
| SEQ ID NO: 94: hK2 substrate peptide, single letter sequence P6-P′1 (GGKSRRL; listed as Homo sapiens) | – | – | 3439.7 FU/hr/m | 0.03 FU/hr |
| SEQ ID NO: 92: hK2 substrate peptide, single letter sequence P7-P′1 (GSQNQVHL; listed as Homo sapiens) | 32.48 FU/hr/m | 0.03 FU/hr | – | – |
| SEQ ID NO: 82: hK2 substrate peptide, single letter sequence P7-P′1 (GSQNQVRL; listed as Homo sapiens) | 193.55 FU/hr/m | 0.03 FU/hr | – | – |
| SEQ ID NO: 66: hK2 substrate peptide, single letter sequence P7-P′1 (GHEQKRRL; listed as Homo sapiens) | 5966.31 FU/hr/m | 0.17 FU/hr | 3366.5 FU/hr/m | UD (The entries “U.D.” were for measurements of less than 0.01 FU/hour) |
| SEQ ID NO: 104: hK2 substrate peptide, single letter sequence P6-P′1 (GGKAQRL; listed as Homo sapiens) | – | – | 2233.7 FU/hr/m | 0.04 FU/hr |
| SEQ ID NO: 88: hK2 substrate peptide, single letter sequence P7-P′1 (GPAHQDRL; listed as Homo sapiens) | 75.34 FU/hr/m | 0.06 FU/hr | – | – |
| SEQ ID NO: 101: hK2 substrate peptide, single letter sequence P6-P′1 (GGHKRRL; listed as Homo sapiens) | – | – | 2428.4 FU/hr/m | UD (The entries “U.D.” were for measurements of less than 0.01 FU/hour) |
